We go through 3 molecules from US20240181074A1 (SHENZHEN ENDURING BIOTECH, published 2024).

Test [1] concerns the target T1, human CD19-Fc protein (AcroBiosystems, Cat. CD19-H5259 / Code CD9-H5259) (human, UniProt P15391 20-291).
T1 construct: not shown: Fc of the bought CD19-Fc
T1 sequence (looked up): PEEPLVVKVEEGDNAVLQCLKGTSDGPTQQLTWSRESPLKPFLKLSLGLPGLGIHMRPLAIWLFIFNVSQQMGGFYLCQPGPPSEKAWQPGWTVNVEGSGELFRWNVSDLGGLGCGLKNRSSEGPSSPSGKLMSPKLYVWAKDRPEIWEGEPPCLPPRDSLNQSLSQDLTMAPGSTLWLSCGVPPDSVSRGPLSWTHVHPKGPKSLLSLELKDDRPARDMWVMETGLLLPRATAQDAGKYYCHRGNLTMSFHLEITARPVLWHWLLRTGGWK
As to the kind of experiment: BiaCore SPR, ligand captured by Fc capture. The source says: General procedure: Diluted human CD19 (AcroBiosystems, Cat. CD19-H5259) or human CD3E&3D (AcroBiosystems, Cat. CDD-H52W0) were captured on the sensor chip through Fc capture method. The capture time for human CD3E & CD3D and for human CD19 was set for 12 s and 12-30 s respectively and capture flow rate was […]. Each sample tested was serially diluted into 6-8 concentrations. The association time and dissociation time for the analytes were set for 180 s and 420 s respectively, and the flow rate for the analyte was set at […]. For surface regeneration, 10 mM Glycine-HCl buffer was used; the contact time was set for 30 s and the flow rate was […]. Flow cell 1 and blank injection of buffer in each cycle were used as double references for Response Units subtraction. All data were processed using BiaCore T2000 Evaluation software (version 3.1).
In general terms: In SPR one partner is held on a chip, and binding of the other changes the refractive index at the surface.

The next test addresses T2, human CD19 on cells (human, UniProt P15391 20-556).
T2 sequence (looked up): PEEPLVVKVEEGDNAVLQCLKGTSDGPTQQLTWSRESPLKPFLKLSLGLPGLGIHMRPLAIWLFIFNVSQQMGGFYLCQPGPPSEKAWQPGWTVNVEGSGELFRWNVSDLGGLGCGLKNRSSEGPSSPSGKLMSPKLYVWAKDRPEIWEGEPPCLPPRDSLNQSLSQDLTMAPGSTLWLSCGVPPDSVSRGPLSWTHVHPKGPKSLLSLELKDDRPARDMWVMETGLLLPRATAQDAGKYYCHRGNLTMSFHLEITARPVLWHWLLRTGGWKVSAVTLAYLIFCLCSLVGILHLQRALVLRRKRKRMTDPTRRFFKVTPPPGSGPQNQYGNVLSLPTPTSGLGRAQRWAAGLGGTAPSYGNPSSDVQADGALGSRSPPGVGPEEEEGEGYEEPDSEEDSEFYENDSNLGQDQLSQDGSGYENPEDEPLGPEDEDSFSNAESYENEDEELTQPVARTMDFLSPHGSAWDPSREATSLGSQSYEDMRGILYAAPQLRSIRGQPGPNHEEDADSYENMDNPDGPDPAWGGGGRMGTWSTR
As to the kind of experiment: cell-based or functional assay.

B1: anti-CD19 scFv (SCACD19) (scFv)
scFv: DIQLTQSPASLAVSLGQRATISCKASQSVDYDGDSYLNWYQQIPGQPPKLLIYDASNLVSGIPPRFSGSGSGTDFTLNIHPVEKVDAATYHCQQSTEDPWTFGGGTKLEIKGCGGGSGGGGSGGGGSQVQLQQSGAELVRPGSSVKISCKASGYAFSSYWMNWVKQRPGQGLEWIGQIWPGDGDTNYNGKFKGKATLTADESSSTAYMQLSSLASEDSAVYFCARRETTTVGRYYYAMDYWGQGTTVTVSSHHHHHH
In general, Kd refers to the equilibrium constant for the complex coming apart. Low readings indicate higher affinity, high ones lower affinity. In general, koff refers to the first-order rate constant of dissociation. As a reminder, the kon is the rate constant with which the complex forms. Low values mean slower complex formation, high ones faster complex formation. As to B1, in test [1], binding was characterised by a dissociation constant (Kd) of 0.0653 nM, the koff stood at 0.000343 s⁻¹ and the kon was found to be 5.26e+06 M⁻¹ s⁻¹.

B2: anti-CD19 scFv-Linker (anti-CD19-Linker) (scFv)
scFv: B1 scFv
modifications: conjugated to a linker (linker is a much smaller PEG11); the residue is not given
notes: Linker conjugate of SCACD19; also called SCACD19-linker
In test [1], B2 showed a Kd of 0.111 nM, a koff of 0.000309 s⁻¹ and a kon of 2.79e+06 M⁻¹ s⁻¹.

B3: JY108 (PEGylated BsAb anti-CD3 x anti-CD19) (bispecific antibody)
scFv 1: DIQLTQSPASLAVSLGQRATISCKASQSVDYDGDSYLNWYQQIPGQPPKLLIYDASNLVSGIPPRFSGSGSGTDFTLNIHPVEKVDAATYHCQQSTEDPWTFGGGTKLEIKGCGGGSGGGGSGGGGSQVQLQQSGAELVRPGSSVKISCKASGYAFSSYWMNWVKQRPGQGLEWIGQIWPGDGDTNYNGKFKGKATLTADESSSTAYMQLSSLASEDSAVYFCARRETTTVGRYYYAMDYWGQGTTVTVSS
scFv 2: not shown
modifications: conjugated through a linker to the branched terminal of mPEG (structure given only as a drawing); residue not given
notes: also called PEGylated T-BsAb JY108
With B3, in test [1], binding was characterised by a dissociation constant (Kd) of 1.44 nM, the koff was determined as 0.000566 s⁻¹ and the kon is 392000 M⁻¹ s⁻¹. Moreover, in the test with human CD19 on cells, the “EC50 of cell killing (MTS cytotoxicity), Nalm-6, E:T=5:1” value came to 0.0376 mg/L; the “EC50 of cell killing (MTS cytotoxicity), Nalm-6, E:T=10:1” value was found to be 0.0147 mg/L; the “EC50 of cell killing (MTS cytotoxicity), REH” value is 0.0104 mg/L; the “EC50 of cell killing (MTS cytotoxicity), Raji” value was 0.159 mg/L.
